The test has as its target T1, recombinant human Trop-2 (Sino Biological, Cat. No: 10428-H08H) (human, UniProt P09758 27-274).
T1 chain: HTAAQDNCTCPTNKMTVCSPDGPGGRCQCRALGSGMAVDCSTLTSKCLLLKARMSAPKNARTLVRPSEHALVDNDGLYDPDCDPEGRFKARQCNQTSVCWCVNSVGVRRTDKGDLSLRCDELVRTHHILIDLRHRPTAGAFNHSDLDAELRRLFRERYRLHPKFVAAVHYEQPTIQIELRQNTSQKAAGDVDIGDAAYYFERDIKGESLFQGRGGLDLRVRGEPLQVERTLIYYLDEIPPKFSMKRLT
The test can be described thus: ELISA.

As a reminder, the EC50 is the midpoint of the concentration-response curve.

B1: heterodimeric anti-Trop-2/anti-CD3-scFv bispecific antibody (bispecific antibody)
heavy: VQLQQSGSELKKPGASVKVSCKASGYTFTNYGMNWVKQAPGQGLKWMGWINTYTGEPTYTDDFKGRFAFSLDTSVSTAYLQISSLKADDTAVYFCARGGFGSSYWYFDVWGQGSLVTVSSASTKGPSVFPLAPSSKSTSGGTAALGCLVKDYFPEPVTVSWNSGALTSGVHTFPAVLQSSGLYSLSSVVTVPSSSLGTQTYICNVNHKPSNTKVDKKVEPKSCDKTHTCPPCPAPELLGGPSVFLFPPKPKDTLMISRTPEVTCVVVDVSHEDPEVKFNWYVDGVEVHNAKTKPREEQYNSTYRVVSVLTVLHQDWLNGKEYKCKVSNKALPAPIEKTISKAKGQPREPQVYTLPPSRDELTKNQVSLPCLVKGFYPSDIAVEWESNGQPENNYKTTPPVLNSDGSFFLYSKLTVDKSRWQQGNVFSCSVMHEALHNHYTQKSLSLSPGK
light: DIQLTQSPSSLSASVGDRVSITCKASQDVSIAVAWYQQKPGKAPKLLIYSASYRYTGVPDRFSGSGSGTDFTLTISSLQPEDFAVYYCQQHYITPLTFGAGTKVEIKRTVAAPSVFIFPPSDEQLKSGTASVVCLLNNFYPREAKVQWKVDNALQSGNSQESVTEQDSKDSTYSLSSTLTLSKADYEKHKVYACEVTHQGLSSPVTKSFNRGEC
scFv: not shown
Regarding B1, the EC50 was 0.28 nM.

B2: Anti-Trop-2 mAb (antibody, V domains shown)
VH: VQLQQSGSELKKPGASVKVSCKASGYTFTNYGMNWVKQAPGQGLKWMGWINTYTGEPTYTDDFKGRFAFSLDTSVSTAYLQISSLKADDTAVYFCARGGFGSSYWYFDVWGQGSLVTVSS
VL: DIQLTQSPSSLSASVGDRVSITCKASQDVSIAVAWYQQKPGKAPKLLIYSASYRYTGVPDRFSGSGSGTDFTLTISSLQPEDFAVYYCQQHYITPLTFGAGTKV
In the case of B2, the EC50 is 0.081 nM.

The values are drawn from patent US20190284299A1 (published 2019).
